Target: endogenous SHP-1 (UniProt P29351)
Test: GST pull-down of endogenous macrophage SHP-1
Details: reference: wild type

| Substance | binding against the reference (sites Y519) | binding against the reference (sites Y490) |
| --- | --- | --- |
| EHEC (EDL933) Tir (from UniProt Q7DB77) Y519F | weaker |  |
| EHEC (EDL933) Tir (from UniProt Q7DB77) Y490F |  | weaker |
